Results published in US20150147767A1.
Blank lines part the entries; values can stand above or below the molecule they belong to.

Columns and labels:
[1] = target: surface of J774 A1 macrophages (BAG3 binding partner not identified) (murine); assay: flow cytometry on J774 A1 cells, negative control
[2] = target: FITC-conjugated BAG3 recombinant protein (human) (UniProt O95817); assay: flow cytometry, blocking of 14 nM FITC-rBAG3 binding to J774 A1 cells by 420 nM F(ab′)2; negative control
[3] = target: surface of J774 A1 macrophages (BAG3 binding partner not identified) (murine); assay: flow cytometry on J774 A1 cells
[4] = target: surface of J774 A1 macrophages (BAG3 binding partner not identified) (murine); assay: flow cytometry on J774 A1 cells, 14 nM FITC-rBAG3
[5] = target: surface of J774 A1 macrophages (BAG3 binding partner not identified) (murine); assay: flow cytometry competition on J774 A1 cells; 625 nM peptide, 14 nM FITC-rBAG3 as competitor

Sequence of UniProt O95817 (O95817 whole entry): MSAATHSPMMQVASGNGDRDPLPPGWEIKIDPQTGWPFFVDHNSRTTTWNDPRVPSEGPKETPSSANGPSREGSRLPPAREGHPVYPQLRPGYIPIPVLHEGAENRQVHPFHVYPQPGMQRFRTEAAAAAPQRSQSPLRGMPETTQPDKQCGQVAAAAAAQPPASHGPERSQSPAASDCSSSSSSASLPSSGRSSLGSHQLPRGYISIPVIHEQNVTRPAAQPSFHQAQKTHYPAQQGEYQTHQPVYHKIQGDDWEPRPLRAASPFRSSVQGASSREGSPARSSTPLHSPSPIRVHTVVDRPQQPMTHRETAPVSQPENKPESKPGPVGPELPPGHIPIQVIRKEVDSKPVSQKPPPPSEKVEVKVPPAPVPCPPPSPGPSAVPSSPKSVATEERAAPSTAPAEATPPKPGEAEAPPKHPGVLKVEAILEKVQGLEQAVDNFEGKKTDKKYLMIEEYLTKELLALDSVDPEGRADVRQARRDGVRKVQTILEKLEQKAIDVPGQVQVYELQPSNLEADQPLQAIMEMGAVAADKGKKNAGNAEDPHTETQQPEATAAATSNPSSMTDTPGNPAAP

Molecule: FITC-conjugated BSA (albumin from bovine serum) (from UniProt P02769 25-607)
- % of positive cells [1]: 4.04%

Molecule: F(ab′)2 fragments from rabbit IgG (antibody)
- % inhibition [2]: 0%
- % of positive cells [2]: 14.7%

Molecule: FITC-conjugated BAG3 recombinant protein (from UniProt O95817 1-575)
- % of positive cells, FITC-BSA subtracted [3]: 11.1%
- % of positive cells [4]: 15.7%

B1: BAG3 peptide 3 (peptide)
peptide: DKGKKNAGNAEDPHT
- % inhibition [5]: 47.2%
- % of positive cells [5]: 5.86%

B3: BAG3 peptide 2 (peptide)
peptide: SSPKSVATEERAAPS
- % inhibition [5]: 89.1%
- % of positive cells [5]: 1.21%

B4: BAG3 peptide 1 (peptide)
peptide: DRDPLPPGWEIKIDPQ
- % inhibition [5]: 98.4%
- % of positive cells [5]: 0.18%

The remaining lines, values ahead:

- % inhibition [2]: 0%
- % of positive cells [2]: 12.3%
Molecule: F(ab′)2 fragments from mouse IgG (antibody)

- % inhibition [5]: 93.8%
- % of positive cells [5]: 0.68%
B2: BAG3 peptide 4 (peptide)
peptide: NPSSMTDTPGNPAAP
